Test results published in US20160274109A1.

Target: Rap1B (Rap1B portion of the EPAC2-GFP-RAP1B sensor) (Homo sapiens (Human)) (UniProt P61224)
Assay: cell-based or functional assay

Chain of Rap1B (Rap1B portion of the EPAC2-GFP-RAP1B sensor) (Homo sapiens (Human)) (P61224 other isoform, or with tags, fused parts or gaps limits assumed): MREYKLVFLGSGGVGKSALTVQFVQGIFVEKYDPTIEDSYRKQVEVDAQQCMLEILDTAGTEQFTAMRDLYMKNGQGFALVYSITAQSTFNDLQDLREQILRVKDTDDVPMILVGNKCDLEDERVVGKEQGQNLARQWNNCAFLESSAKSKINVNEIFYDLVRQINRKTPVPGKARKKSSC

| Relative Change in Fluorescence in Response to Isoproternol (EPAC2gfpRAP1B sensor) [%] | change in fluorescence of the tethered Epac2-cpEGFP-Rap1B sensor in response to drug (isoproterenol), HEK 293 cells [%] | Substance |
| --- | --- | --- |
| 26 | – | Epac2 (Epac2 portion of the EPAC2-GFP-RAP1B sensor) (from UniProt Q8WZA2 1-1011) |
| – | 25 | Epac2 (Epac2 portion of the EPAC2-GFP-RAP1B sensor) (from UniProt Q8WZA2 1-1011) (enzyme) |
